# Data taken from publication PMC8481183, “Resonance assignment of coiled-coil 3 (CC3) domain of human STIM1” (Biomolecular Nmr Assignments, 2021).
# B1: human STIM1 coiled-coil3 (CC3) fragment (amino acids 388–430) (domain or fragment, UniProt Q13586 388-430, looked up)
# chain: NTLFGTFHVAHSSSLDDVDHKILTAKQALSEVTAALRERLHRW
# notes: Cloned in pGEX 4T-1 (GST tag with thrombin cleavage site); The NMR sample was 15N/13C labelled; Purification follows Rathner et al. 2018; also called STIM1 CC3; CC3 domain; source: E. coli BL21, purified (protocol of Rathner et al. 2018, slightly modified)
# Biological target: the molecule itself
# Test: circular dichroism; STIM1 CC3 alone in 20 mM Bis-Tris, pH 6.0, without TFE, 20 °C; ratio [CD]222/[CD]208 as coiled-coil index
protein,measurement,value
B1,binding result,binds
